This data set is described as follows: Partition coefficient K in two-phase aqueous system PEG (1000) 12.5%-K2HPO4 12.5%. The following applies: PEG (MW 1000) 12.5%-K2HPO4 12.5% two-phase aqueous solvent system. The data set is classed as physicochemical. The source says:
A determination of the partition coefficient, K, is made by dissolving a small sample into a solvent system, shaking the mixture, and measuring the concentration of the sample in both phases after separation of the phases. That provides the ratio of concentration in the upper to lower phase (Cu/Cl). The phase chosen as the mobile phase is that giving a partition coefficient of 1 to 2. The efficiency of a separation will be determined by use of the conventional gas chromatographic equation: N=(4R/W)^2. The theoretical plates or N is calculated from the shape of the peaks. R is the retention time or volume of the peak maximum and W is the peak width expressed in the same units as R. For preparative separations, the values of N may be up to 1000, but the more important relationship is resolution. Resolution between adjacent peaks is given by: RS=2(VR,2−VR,1)/(W1+W2). Using that equation and substituting each solute retention volume by the following: VR=Vm+KVS. The Vm term cancels giving: RS=2(K2−K1)Vs/(W1+W2).
The apparatus of interest can be used to separate proteins or other large molecules. In this example, the spiral tube support was made as described above and used to purify mouse uteroglobin. Mouse uteroglobin has a MW of […] and normally exists as a dimer; but, in solution, a monomeric form of the protein can also accumulate. A separation was made in the spiral tube support to separate uteroglobin monomers from uteroglobin dimers. This was done by measuring the K value using HPLC and then separating the protein using countercurrent chromatography with the spiral tube support apparatus. […] The heights of the peaks representing the monomer at 31.5 min. and dimer at 32.8 min. HPLC retention time, respectively, were measured and the ratios give different values for the concentration in the upper phase over that of the lower phase. The two protein peaks calculated to K values of 4.0 and 6.9 in PEG (1000) 12.5%-K2HPO4 12.5%. The different K values mean that the two species could be separated with one or the other phase mobile. Since the numeric value is over two, the analyte would remain in the coil a long time, ultimately being eluted in approximately four to seven column volumes. Consequently, a run was performed for two column volumes and then the contents of the column were extruded and analyzed.
In this example, 31 mg lysozyme (14.4 kDa) and 24 mg myoglobin (17.7 kDa) were mixed and separated using the countercurrent chromatography apparatus and methods of use as claimed. A non-denaturing two-phase aqueous solvent system consisting of 12.5% PEG (MW 1000):12.5% K2HPO4 provides for a polyethylene-rich upper phase and phosphate buffer-rich lower phase. The lower phase was used as the mobile phase at a flow rate of 1 ml/min. […]

Consider lysozyme, for which the “K value (concentration in upper phase over lower phase)” value came to 1.35. The result for myoglobin reads 0.38. The same measure for “uteroglobin dimer: dimeric form of mouse uteroglobin protein”: 6.9; for “uteroglobin monomer: monomeric form of mouse uteroglobin protein”: 4.0.

Source of the values: patent US8597509B2, “Countercurrent chromatography rotor” (CC Biotech LLC, priority 2008, dated 2013).
